Key:
[1] = target: e6ap peptide; experiment: ITC
[2] = target: E6 F47R 4C4S, a soluble mutant of HPV16 E6 (HPV16); experiment: ITC

Substance	Kd [1] [µM]	Kd [2] [µM]
E6 F47R 4C4S, a soluble mutant of HPV16 E6 (natural protein)	> 10	
LxxLL peptide (E6-binding LxxLL motif of E6AP)		42
